Results from article PMC9935832, “Calcium-dependent protein kinase CDPK16 phosphorylates serine-856 of glutamate receptor-like GLR3.6 protein leading to salt-responsive root growth in Arabidopsis^#” (Frontiers in Plant Science, 2023).

T1: 6xHis-14-3-3ω (Arabidopsis, UniProt Q01525 1-259)
T1 construct: End of the His tag read from the printed name 6xHis-14-3-3ω; Vector map in Appendix 1B; construct as in Chen et al. (2018); also called recombinant 6xHis-14-3-3ω; source: E. coli BL21, purified (Ni-NTA agarose); not shown: 6xHis, N-terminal, kept
T1 sequence (looked up): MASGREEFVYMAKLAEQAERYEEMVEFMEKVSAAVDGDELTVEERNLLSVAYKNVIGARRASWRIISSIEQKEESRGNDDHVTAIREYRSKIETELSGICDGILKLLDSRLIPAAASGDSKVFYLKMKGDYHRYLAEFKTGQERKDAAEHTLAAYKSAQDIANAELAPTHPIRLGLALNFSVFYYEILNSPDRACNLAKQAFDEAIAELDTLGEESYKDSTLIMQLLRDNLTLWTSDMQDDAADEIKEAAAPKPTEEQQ

B1: GST-GLR3.6 (GST-fused peptide fragment of GLR3.6, amino acids 854-865) (peptide)
chain: EGSIRRRSSPSA
notes: cloned by AscI and NotI into the GST-NRV vector; End of GST read from the printed name GST-GLR3.6; The vector-only control gives GST-RFP-Strep tag II, so the peptide fusion probably carries RFP and Strep tag II too; vector map in Appendix 1A; design as in Curran et al. (2011); also called GLR3.6 peptide fragment; source: E. coli BL21, purified (glutathione resin); not shown: GST, N-terminal, kept
B2: GST-GLR3.6-S856A (GST-fused peptide fragment) (peptide, UniProt Q84W41 854-865, looked up)
chain: EGAIRRRSSPSA
notes: End of GST read from the printed name; also called GLR3.6-S856A single mutant; source: E. coli BL21, purified (glutathione resin); not shown: GST, N-terminal, kept

Biological target: T1, 6xHis-14-3-3ω
Test: pull-down; 6xHis-14-3-3ω and GST-fused GLR3.6 peptides (50 μg each) mixed with Ni-NTA agarose, 4°C, 2 h; western blot with α-His and α-GST
Settings: both partners purified

| Binder | binding result |
| --- | --- |
| B1 | binds |
| B2 | binds |
